Test results reported in patent US20220363757A1 (SYMPHOGEN A S, published 2022).
Substitutions are numbered along the chain they refer to.

Experiments:
Assay in all cases: SPR, Fab over captured mutant LAG-3-Fc;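 further: fc fusion variants captured on anti-human IgG Fc sensor, Fab injected with association then dissociation phases, KD obtained from Langmuir one-to-one fit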
[1] = target: T1, human LAG-3 domain 1-2 Fc fusion, point mutation #47 T100A (human, UniProt P18627 23-266)
T1 construct: not shown: human IgG1 Fc, AA P101-K330
T1 sequence: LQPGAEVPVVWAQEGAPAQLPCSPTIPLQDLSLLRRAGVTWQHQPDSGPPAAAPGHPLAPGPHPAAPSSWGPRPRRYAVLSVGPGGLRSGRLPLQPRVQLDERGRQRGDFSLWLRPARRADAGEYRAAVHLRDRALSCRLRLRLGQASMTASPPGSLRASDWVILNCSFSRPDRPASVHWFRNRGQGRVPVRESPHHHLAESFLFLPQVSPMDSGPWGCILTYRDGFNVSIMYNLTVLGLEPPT

[2] = target: T2, human LAG-3 domain 1-2 Fc fusion, point mutation #13 R58A (human, UniProt P18627 23-266)
T2 construct: not shown: human IgG1 Fc, AA P101-K330
T2 sequence: T1 sequence with R36A, A78T

[3] = target: T3, human LAG-3 domain 1-2 Fc fusion, point mutation #22 A75S (human, UniProt P18627 23-266)
T3 construct: not shown: human IgG1 Fc, AA P101-K330
T3 sequence: T1 sequence with A53S, A78T

[4] = target: T4, human LAG-3 domain 1-2 Fc fusion, point mutation #52 G108A (human, UniProt P18627 23-266)
T4 construct: not shown: human IgG1 Fc, AA P101-K330
T4 sequence: T1 sequence with A78T, G86A

[5] = target: T5, human LAG-3 domain 1-2 Fc fusion, point mutation #6 T47A (human, UniProt P18627 23-266)
T5 construct: not shown: human IgG1 Fc, AA P101-K330
T5 sequence: T1 sequence with T25A, A78T

[6] = target: T6, human LAG-3 domain 1-2 Fc fusion, point mutation #29 P82A (human, UniProt P18627 23-266)
T6 construct: not shown: human IgG1 Fc, AA P101-K330
T6 sequence: T1 sequence with P60A, A78T

[7] = target: T7, human LAG-3 domain 1-2 Fc fusion, point mutation #5 P46A (human, UniProt P18627 23-266)
T7 construct: not shown: human IgG1 Fc, AA P101-K330
T7 sequence: T1 sequence with P24A, A78T

[8] = target: T8, human LAG-3 domain 1-2 Fc fusion, point mutation #4 S45A (human, UniProt P18627 23-266)
T8 construct: not shown: human IgG1 Fc, AA P101-K330
T8 sequence: T1 sequence with S23A, A78T

[9] = target: T9, human LAG-3 domain 1-2 Fc fusion, point mutation #10 S54A (human, UniProt P18627 23-266)
T9 construct: not shown: human IgG1 Fc, AA P101-K330
T9 sequence: T1 sequence with S32A, A78T

B1: Fab fragment of antibody 15532 (Fab, V domains shown, not shown: a dimerising Fc or GST)
VH: QVQLQQWGAGLLRPSETLSLTCAVYGESFSGYYWNWIRQPPGKGLEWIGEINHSGSTNYNPSLKSRVTISVDTSKTQFSLKLSSVTAADTAVYYCARGWDLLDWNDYWNEYWGQGTLVTVSS
VL: EIVLTQSPATLSLSPGERATLSCRASQSVSSYLAWYQQKPGQAPRLLIYDASNRATGIPARFSGSGSGTDFTLTISSLEPEDFAVYYCQQRSNWPLTFGGGTKVEIKR
notes: monomeric Fab made by GingisKHAN digestion of the IgG1
KD mutant/KD wild type [1]: 3.9 fold | KD mutant/KD wild type [2]: 0.8 fold | KD mutant/KD wild type [3]: 0.9 fold | KD mutant/KD wild type [4]: 1 fold | KD mutant/KD wild type [5]: 1.5 fold | KD mutant/KD wild type [6]: 1 fold | KD mutant/KD wild type [7]: 4 fold | KD mutant/KD wild type [8]: 1.7 fold | KD mutant/KD wild type [9]: 0.7 fold

B2: Fab fragment of antibody 15431 (Fab, V domains shown, not shown: a dimerising Fc or GST)
VH: QVQLQQSGPGLVKPSQTLSLTCAISGDSVSSNSAAWNWIRQSPSRGLEWLGRTYYRSKWYNDYAVSVKSRITINPDTSKNQFSLQLNSVTPEDTAVYYCARDDDWNDFDYWGQGTLVTVSS
VL: B1 VL
notes: as for B1
binding result [1]: no binding (tested: 300 nM) | KD mutant/KD wild type [2]: 1.2 fold | KD mutant/KD wild type [3]: 0.8 fold | KD mutant/KD wild type [4]: 0.3 fold | KD mutant/KD wild type [5]: 0.9 fold | KD mutant/KD wild type [6]: 1 fold | binding result [7]: no binding (tested: 300 nM) | KD mutant/KD wild type [8]: 0.4 fold | KD mutant/KD wild type [9]: 0.5 fold

B3: Fab fragment of antibody 15011 (Fab, V domains shown, not shown: a dimerising Fc or GST)
VH: EVQLLESGGGLVQPGGSLRLSCAASGFDFRSYAMMWVRQAPGKGLEWVGGINGEVGGSNTYYAPAVKGRATISRDNSKNTLYLQMNSLRAEDTAVYYCVKGAGACGICNDDIDAWGQGTLVTVSS
VL: SYELTQDPAVSVALGQTVRITCSGAGSYAGSYYYGWHQQKPGQAPVTVIYDNDKRPSNIPDRFSGSSSGNTASLTITGAQAEDEADYYCGSTNDNDDGGLFGSGTKVTVLG
notes: as for B1
KD mutant/KD wild type [1]: 0.6 fold | KD mutant/KD wild type [2]: 1.7 fold | KD mutant/KD wild type [3]: 0.8 fold | KD mutant/KD wild type [4]: 0.5 fold | KD mutant/KD wild type [5]: 0.9 fold | KD mutant/KD wild type [6]: 0.9 fold | KD mutant/KD wild type [7]: 0.7 fold | KD mutant/KD wild type [8]: 0.7 fold | KD mutant/KD wild type [9]: 0.8 fold

B4: Fab fragment of antibody 15572 (Fab, V domains shown, not shown: a dimerising Fc or GST)
VH: QLQLQESGPGLVKPSETLSLTCTVSGDSISSSSYYWGWIRQPPGKGLEWIGSIFYSGNTYYNPSLKSRVTISVDTSKNQFSLKLSSVTAADTAVYYCAREDDFLTDYYGAFDIWGQGTMVTVSS
VL: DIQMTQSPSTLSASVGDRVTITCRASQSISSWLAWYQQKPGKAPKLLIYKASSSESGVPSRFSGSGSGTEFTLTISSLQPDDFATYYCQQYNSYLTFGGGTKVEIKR
notes: as for B1
binding result [1]: no binding (tested: 300 nM) | KD mutant/KD wild type [2]: 0.8 fold | KD mutant/KD wild type [3]: 0.7 fold | KD mutant/KD wild type [4]: 0.4 fold | KD mutant/KD wild type [5]: 0.6 fold | KD mutant/KD wild type [6]: 0.8 fold | binding result [7]: no binding (tested: 300 nM) | KD mutant/KD wild type [8]: 0.6 fold | KD mutant/KD wild type [9]: 0.7 fold
